Assays:
[1] = target: Dsg2 (Homo sapiens) (UniProt Q14126); experiment: sedimentation equilibrium AUC; settings: cited from earlier work
[2] = target: the molecule itself; experiment: AFM single molecule force spectroscopy; Dsg2 EC1-4 covalently immobilised on both the AFM tip (long PEG linker) and the gold substrate; calcium buffer (2 mM CaCl2, 10 mM HEPES, 150 mM NaCl, pH 7.4); pulling velocities 200 to 5,000 nm s^-1; k- and x from the Evans and Ritchie model, Kd and k+ from the free energy by Jarzynski's equality; monomer to homodimer

Dsg2, sequence (Q14126 50-609): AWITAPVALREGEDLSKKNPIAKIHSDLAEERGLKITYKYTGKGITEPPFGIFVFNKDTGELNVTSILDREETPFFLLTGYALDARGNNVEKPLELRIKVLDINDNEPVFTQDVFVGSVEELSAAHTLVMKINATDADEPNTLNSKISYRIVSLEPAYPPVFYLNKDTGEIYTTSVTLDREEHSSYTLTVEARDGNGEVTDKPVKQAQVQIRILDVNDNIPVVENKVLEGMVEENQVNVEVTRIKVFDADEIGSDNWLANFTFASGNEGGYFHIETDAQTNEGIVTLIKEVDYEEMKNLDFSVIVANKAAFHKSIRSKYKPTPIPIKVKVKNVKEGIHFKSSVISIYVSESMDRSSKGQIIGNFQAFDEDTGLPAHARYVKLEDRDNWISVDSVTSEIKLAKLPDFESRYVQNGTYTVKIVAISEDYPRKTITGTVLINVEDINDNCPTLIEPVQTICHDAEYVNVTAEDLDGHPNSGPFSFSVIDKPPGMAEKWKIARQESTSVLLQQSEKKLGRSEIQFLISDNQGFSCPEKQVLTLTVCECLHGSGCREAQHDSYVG

Molecule	Kd [1] [µM]	Kd [2] [µM]	bond lifetime tau [2] [s]	koff [2] [s⁻¹]	kon [2] [M⁻¹ s⁻¹]
Dsg2 (from UniProt Q14126)	433				
Desmoglein-2 (Dsg2) p.V343I (p.V392I), recombinant extracellular cadherin domains 1-4 (EC1-4) (domain or fragment, thiol of the unique cysteine C447 (C496) covalently coupled to the maleimide of a cross-linker (maleimide-PEG-succinimidyl valerate 3,400 on the cantilever; NHS 3-maleimidopropionate on the gold substrate)) AWITAPVALREGEDLSKKNPIAKIHSDLAEERGLKITYKYTGKGITEPPFGIFVFNKDTGELNVTSILDREETPFFLLTGYALDARGNNVEKPLELRIKVLDINDNEPVFTQDVFVGSVEELSAAHTLVMKINATDADEPNTLNSKISYRIVSLEPAYPPVFYLNKDTGEIYTTSVTLDREEHSSYTLTVEARDGNGEVTDKPVKQAQVQIRILDVNDNIPVVENKVLEGMVEENQVNVEVTRIKVFDADEIGSDNWLANFTFASGNEGGYFHIETDAQTNEGIVTLIKEVDYEEMKNLDFSVIVANKAAFHKSIRSKYKPTPIPIKVKVKNVKEGIHFKSSIISIYVSESMDRSSKGQIIGNFQAFDEDTGLPAHARYVKLEDRDNWISVDSVTSEIKLAKLPDFESRYVQNGTYTVKIVAISEDYPRKTITGTVLINVEDINDNCPTLIEPV		1010	1.73	0.58	573
Desmoglein-2 (Dsg2) wildtype, recombinant extracellular cadherin domains 1-4 (EC1-4) (domain or fragment, thiol of the unique cysteine C447 (C496) covalently coupled to the maleimide of a cross-linker (maleimide-PEG-succinimidyl valerate 3,400 on the cantilever; NHS 3-maleimidopropionate on the gold substrate)) AWITAPVALREGEDLSKKNPIAKIHSDLAEERGLKITYKYTGKGITEPPFGIFVFNKDTGELNVTSILDREETPFFLLTGYALDARGNNVEKPLELRIKVLDINDNEPVFTQDVFVGSVEELSAAHTLVMKINATDADEPNTLNSKISYRIVSLEPAYPPVFYLNKDTGEIYTTSVTLDREEHSSYTLTVEARDGNGEVTDKPVKQAQVQIRILDVNDNIPVVENKVLEGMVEENQVNVEVTRIKVFDADEIGSDNWLANFTFASGNEGGYFHIETDAQTNEGIVTLIKEVDYEEMKNLDFSVIVANKAAFHKSIRSKYKPTPIPIKVKVKNVKEGIHFKSSVISIYVSESMDRSSKGQIIGNFQAFDEDTGLPAHARYVKLEDRDNWISVDSVTSEIKLAKLPDFESRYVQNGTYTVKIVAISEDYPRKTITGTVLINVEDINDNCPTLIEPV		412	0.33	2.99	7270
Desmoglein-2 (Dsg2) p.D105E (p.D154E), recombinant extracellular cadherin domains 1-4 (EC1-4) (domain or fragment, thiol of the unique cysteine C447 (C496) covalently coupled to the maleimide of a cross-linker (maleimide-PEG-succinimidyl valerate 3,400 on the cantilever; NHS 3-maleimidopropionate on the gold substrate)) AWITAPVALREGEDLSKKNPIAKIHSDLAEERGLKITYKYTGKGITEPPFGIFVFNKDTGELNVTSILDREETPFFLLTGYALDARGNNVEKPLELRIKVLDINENEPVFTQDVFVGSVEELSAAHTLVMKINATDADEPNTLNSKISYRIVSLEPAYPPVFYLNKDTGEIYTTSVTLDREEHSSYTLTVEARDGNGEVTDKPVKQAQVQIRILDVNDNIPVVENKVLEGMVEENQVNVEVTRIKVFDADEIGSDNWLANFTFASGNEGGYFHIETDAQTNEGIVTLIKEVDYEEMKNLDFSVIVANKAAFHKSIRSKYKPTPIPIKVKVKNVKEGIHFKSSVISIYVSESMDRSSKGQIIGNFQAFDEDTGLPAHARYVKLEDRDNWISVDSVTSEIKLAKLPDFESRYVQNGTYTVKIVAISEDYPRKTITGTVLINVEDINDNCPTLIEPV		817	3.39	0.3	361

— PMC5653825, “Arrhythmogenic cardiomyopathy related DSG2 mutations affect desmosomal cadherin binding kinetics” (Scientific Reports, 2017)
